Reference: article PMC11772155, “Solid-Phase-Supported Chemoenzymatic Synthesis and Analysis of Chondroitin Sulfate Proteoglycan Glycopeptides” (Angewandte Chemie (International ed. in English), 2024)
Blank lines part the entries; values can stand above or below the compound they belong to. Numbered stars: 1 amine (or outer) side, 2 acyl side, 3 side chain; on linkers, the order of the positions; unused ones are H or OH. Square brackets hold non-standard residues; d marks the D form. Ends that are not written are not given here. Peptide text beside a SMILES is read from it. X1 = CC(=O)N[C@H]1[C@H](O[C@H]2[C@H](O)[C@@H](O)[C@H](O[C@H]3[C@@H](O)[C@@H](CO)O[C@@H](O[C@H]4[C@@H](O)[C@@H](CO)O[C@@H](O[C@@H]5CO[C@@H](OC[C@H](N[*:1])C(=O)[*:2])[C@H](O)[C@H]5O)[C@@H]4O)[C@@H]3O)O[C@@H]2C(=O)O)O[C@H](CO)[C@H](OS(=O)(=O)O)[C@@H]1O[C@@H]1O[C@H](C(=O)O)[C@@H](O[C@@H]2O[C@H](CO)[C@H](OS(=O)(=O)O)[C@H](O[C@@H]3O[C@H](C(=O)O)[C@@H](O[C@@H]4O[C@H](CO)[C@H](O)[C@H](O[C@@H]5O[C@H](C(=O)O)[C@@H](O)[C@H](O)[C@H]5O)[C@H]4NC(C)=O)[C@H](O)[C@H]3O)[C@H]2NC(C)=O)[C@H](O)[C@H]1O

Legend:
[1] = target: T1, Human Neutrophil Cathepsin G (Homo sapiens, UniProt P08311); test: BLI (biolayer interferometry) binding assay of immobilized biotinylated compounds with Cathepsin G; conditions: biotinylated compounds immobilized on streptavidin sensors, Cathepsin G at 2000, 1000, 500, 250 nM in PBS containing 0.005% P20, read-out: KD (nM) with Cathepsin G
T1 construct: Human Neutrophil Cathepsin G was purchased from Athens; purchased Athens Research & Technology, Inc. (Athens, Georgia)
T1 sequence (P08311 21-243 limits assumed): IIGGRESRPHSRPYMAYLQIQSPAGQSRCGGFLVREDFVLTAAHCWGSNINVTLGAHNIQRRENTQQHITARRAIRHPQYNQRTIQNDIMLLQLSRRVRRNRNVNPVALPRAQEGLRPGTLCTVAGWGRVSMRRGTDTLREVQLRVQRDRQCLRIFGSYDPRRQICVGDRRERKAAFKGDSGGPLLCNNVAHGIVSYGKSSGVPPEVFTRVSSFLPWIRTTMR
Source text: With structurally defined glycopeptides in hand, we aim to better understand the structural features needed for bikunin glycopeptide binding. Cathepsin G (CatG), a neutrophil serine protease, plays a crucial role in regulating various physiological processes, including inflammation, digestion, smooth muscle contraction, and tissue remodeling.[64] While CatG has been reported to interact with CSPG, the structural requirement of CSPG binding has not been established.[25] To measure the binding affinity towards CatG, peptides 5 and glycopeptides 10, 18–21 were biotinylated and immobilized on streptavidin coated sensors for biolayer interferometry (BLI) studies. Biotinylated 50 kDa CS and CS-A were also immobilized on the sensors for comparison. […]
General procedure of glycopeptide biotinylation
To a solution of peptide or glycopeptide in DMSO/H 2O (1/1, 0.1 ml) was added NHS-LC-Biotin (4 equiv.) and diisoproylethylamine (pH ~ 8.5). The reaction was incubated at 37 °C for 2 h. Then the mixture was dried in vacuo and purified by HPLC.
General procedure for BLI binding assay
The binding assay was performed on the Octet K2 System (Pall ForteBio). The biotinylated compounds were incubated with streptavidin (SA) sensors for 2 min. The sensor was then balanced in the assay buffer (PBS containing 0.005% P20) and dipped into Cathepsin G solution in assay buffer at 2000 nM, 1000 nM, 500 nM, 250 nM concentrations.
After 5 min of association, the sensor was brought back to the previous assay buffer for a 5 min dissociation step. At the end of the assay, the sensor was regenerated in 2 M NaCl to remove the bound protein. Each measurement was repeated 3 times on the same sensor. The control assay was performed with another sensor loaded with a 2 mM biotin solution.
Figure S3. Binding of peptide and glycopeptides a) 5, b) 10 , c) 18 , d) 19 , e) 20 , f) 21 , g) commercially available biotinylated 50 kDa CS, and h) 50 kDa CS-A to neutrophil Cathepsin G as measured by BLI ( a-h respectively). The biotinylated compounds (50 nM) were immobilized on streptavidin coated biosensors, and human neutrophil Cathepsin G was captured on biosensors with four concentrations at 2000 nM, 1000 nM, 500 nM, 250 nM.
Fitting curves were shown in red lines. […]

[2] = target: biotinylated sulfated 10-mer CS-bearing glycopeptide 20 (bikunin); test: BLI; biotinylated peptide or glycopeptides immobilised on streptavidin coated sensors; cathepsin G in solution
[3] = target: biotinylated tetrasaccharide linkage region bearing glycopeptide 10 (bikunin); test: as above
[4] = target: biotinylated sulfated 8-mer CS-bearing glycopeptide 19 (bikunin); test: as above
[5] = target: biotinylated non-sulfated chondroitin dodecasaccharide glycopeptide 18 (bikunin); test: as above
[6] = target: biotinylated sulfated 12-mer CS-bearing glycopeptide 21 (bikunin); test: as above

Compound: CC(=O)N[C@H]1[C@H](O[C@H]2[C@H](O)[C@@H](O)[C@H](O[C@H]3[C@@H](O)[C@@H](CO)O[C@@H](O[C@H]4[C@@H](O)[C@@H](CO)O[C@@H](O[C@@H]5CO[C@@H](OC[C@H](NC(=O)CNC(=O)[C@H](CCC(=O)O)NC(=O)[C@H](CCC(=O)O)NC(=O)[C@H](CCC(=O)O)NC(=O)[C@H](CCC(N)=O)NC(=O)[C@@H]6CCCN6C(=O)[C@H](CC(C)C)NC(=O)[C@@H](NC(=O)[C@H](C)N)C(C)C)C(=O)NCC(=O)NCC(=O)NCC(=O)N[C@@H](CCC(N)=O)C(=O)N[C@@H](CC(C)C)C(=O)N[C@H](C(=O)N[C@H](C(=O)N[C@@H](CCC(=O)O)C(=O)N[C@H](C(=O)N[C@H](C(=O)N[C@@H](CCCCN)C(=O)N[C@@H](CCCCN)C(=O)N[C@@H](CCC(=O)O)C(=O)N[C@@H](CC(=O)O)C(=O)N[C@@H](CO)C(=O)O)[C@@H](C)O)C(C)C)[C@@H](C)O)C(C)C)[C@H](O)[C@H]5O)[C@@H]4O)[C@@H]3O)O[C@@H]2C(=O)O)O[C@H](CO)[C@H](OS(=O)(=O)O)[C@@H]1O[C@@H]1O[C@H](C(=O)O)[C@@H](O[C@@H]2O[C@H](CO)[C@H](OS(=O)(=O)O)[C@H](O[C@@H]3O[C@H](C(=O)O)[C@@H](O[C@@H]4O[C@H](CO)[C@H](O)[C@H](O[C@@H]5O[C@H](C(=O)O)[C@@H](O)[C@H](O)[C@H]5O)[C@H]4NC(C)=O)[C@H](O)[C@H]3O)[C@H]2NC(C)=O)[C@H](O)[C@H]1O [Compound 20] (H-AVLPQEEEG[X1]GGGQLVTEVTKKEDS-OH; N-terminus and C-terminus assumed)
Kd [1]: 74 ± 7 nM

Compound: CC(=O)N[C@H]1[C@H](O[C@H]2[C@H](O)[C@@H](O)[C@H](O[C@H]3[C@@H](O)[C@@H](CO)O[C@@H](O[C@H]4[C@@H](O)[C@@H](CO)O[C@@H](O[C@@H]5CO[C@@H](OC[C@H](NC(=O)CNC(=O)[C@H](CCC(=O)O)NC(=O)[C@H](CCC(=O)O)NC(=O)[C@H](CCC(=O)O)NC(=O)[C@H](CCC(N)=O)NC(=O)[C@@H]6CCCN6C(=O)[C@H](CC(C)C)NC(=O)[C@@H](NC(=O)[C@H](C)N)C(C)C)C(=O)NCC(=O)NCC(=O)NCC(=O)N[C@@H](CCC(N)=O)C(=O)N[C@@H](CC(C)C)C(=O)N[C@H](C(=O)N[C@H](C(=O)N[C@@H](CCC(=O)O)C(=O)N[C@H](C(=O)N[C@H](C(=O)N[C@@H](CCCCN)C(=O)N[C@@H](CCCCN)C(=O)N[C@@H](CCC(=O)O)C(=O)N[C@@H](CC(=O)O)C(=O)N[C@@H](CO)C(=O)O)[C@@H](C)O)C(C)C)[C@@H](C)O)C(C)C)[C@H](O)[C@H]5O)[C@@H]4O)[C@@H]3O)O[C@@H]2C(=O)O)O[C@H](CO)[C@H](OS(=O)(=O)O)[C@@H]1O[C@@H]1O[C@H](C(=O)O)[C@@H](O[C@@H]2O[C@H](CO)[C@H](OS(=O)(=O)O)[C@H](O[C@@H]3O[C@H](C(=O)O)[C@@H](O[C@@H]4O[C@H](CO)[C@H](OS(=O)(=O)O)[C@H](O[C@@H]5O[C@H](C(=O)O)[C@@H](O[C@@H]6O[C@H](CO)[C@H](O)[C@H](O[C@@H]7O[C@H](C(=O)O)[C@@H](O)[C@H](O)[C@H]7O)[C@H]6NC(C)=O)[C@H](O)[C@H]5O)[C@H]4NC(C)=O)[C@H](O)[C@H]3O)[C@H]2NC(C)=O)[C@H](O)[C@H]1O [Compound 21]
Kd [1]: 56 ± 8 nM

Kd [2]: 74 nM
Kd [3]: 650 nM
Kd [4]: 49 nM
Kd [5]: 490 nM
Kd [6]: 56 nM
Compound: Cathepsin G (from UniProt P08311 21-244) (enzyme)

Kd [1]: 400 ± 40 nM
Compound: H-AVLPQEEEGSGGGQLVTEVTKKEDS [Compound 5]
